Measurements taken from paper PMC11589570, “Critical assessment of LC3/GABARAP ligands used for degrader development and ligandability of LC3/GABARAP binding pockets” (Nature Communications, 2024).

What was measured:
Experiment in all cases: FP
[1] = target: GABARAPL2_(1-117) (human) (UniProt P60520)
LC3A_(1-120) (human) = LC3A_(1-120) (human) (UniProt Q9H492)
LC3C_(1-126) (human) = LC3C_(1-126) (human) (UniProt Q9BXW4)
Sequence of LC3C_(1-126) (human) (Q9BXW4 1-126): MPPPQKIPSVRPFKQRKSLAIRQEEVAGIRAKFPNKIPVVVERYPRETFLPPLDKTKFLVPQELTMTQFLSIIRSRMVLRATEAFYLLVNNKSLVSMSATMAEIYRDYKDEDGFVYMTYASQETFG

Sequence of GABARAPL2_(1-117) (human) (P60520 whole entry): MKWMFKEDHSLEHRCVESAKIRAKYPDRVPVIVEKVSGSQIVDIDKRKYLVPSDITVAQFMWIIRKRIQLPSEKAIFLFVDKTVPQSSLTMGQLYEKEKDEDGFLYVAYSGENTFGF

PCM1-LIR
Ki [1]: 26.2 µM
Ki (LC3A_(1-120) (human)): 179 µM
Ki (LC3C_(1-126) (human)): 84.3 µM
